From patent US20240400693A1 (Chugai, published 2024)

Legend:
Assay in all cases: cell-based or functional assay
[1] = target: HLA-DQ2.5 on IHW09023 cells loaded with 33mer gliadin peptide (human; wheat)
[2] = target: HLA-DQ2.5 on IHW09023 cells loaded with omega1/2 gliadin peptide (human; wheat)
[3] = target: HLA-DQ2.5 on IHW09023 cells loaded with BC hordein peptide (human; barley)
[4] = target: HLA-DQ2.5 on IHW09023 cells loaded with gamma 1 gliadin peptide (human; wheat)
[5] = target: HLA-DQ2.5 on IHW09023 cells loaded with gamma 2 gliadin peptide (human; wheat)
[6] = target: HLA-DQ2.5 on IHW09023 cells loaded with gamma 3 gliadin peptide (human; wheat)
[7] = target: HLA-DQ2.5 on IHW09023 cells loaded with gamma 4a gliadin peptide (human; wheat)
[8] = target: HLA-DQ2.5 on IHW09023 cells loaded with gamma 4d gliadin peptide (human; wheat)

B1: DQN0344H0976/L0591//DQN0385H1352/L0681-F6 (bispecific antibody)
heavy 1: QVQLVESGGGVVQPGGSLRLSCAASGFTFSSAYWMVWVRQAPGQGLEWMGAVYGGSDTTYYAKWTEGRFTISRDTSKNTLYLQMNSLRAEDTAVYYCAREPLNYYYYGELNLWGQGTLVTVSSASTKGPSVFPLAPSSKSTSGGTAALGCLVKDYFPEPVTVSWNSGALTSGVHTFPAVLKSSGLYSLSSVVTVPSSSLGTQTYICNVNHKPSNTKVDKRVEPKSCDKTHTCPPCPAPELRRGPSVFLFPPKPKDTLMISRTPEVTCVVVDVSHEDPEVKFNWYVDGVEVHNAKTKPREEQYNSTYRVVSVLTVLHQDWLNGKEYKCKVSNKALPAPIEKTISKAKGQPREPQVYTLPPSREEMTKNQVSLTCLVKGFYPSDIAVEWESNGQPENNYKTTPPYLDSDGSFFLYSKLTVDKSRWQEGNVFSCSVLHEALHAHYTREELSLSP
light 1: DIQMTQSPSSLSASVGDRVTITCQATEEIYSGLAWYQQKPGKAPKLLIYYVSTLYEGIPARFSGSGSGTDFTLTISSLEPEDFAVYYCQTYEDVSAVTFGQGTKVEIKRTVAAPSVFIFPPSDEQLKSGTAEVVCLLNNFYPREAKVQWKVDNALQSGNSEESVTEQDSKDSTYSLSSTLTLSKADYEKHKVYACEVTHQGLSSPVTKSFNRGEC
heavy 2: QVQLVESGGGVVQPGRSLRLSCAASGFEFSEWYFMSWVRQAPGKGLEWVASIDTGSGSIDYAEWVEGRFTISRDNSKNTLYLQMNSLRAEDTAVYYCARDIGIDYNFWGPGTLVTVSSASTKGPSVFPLAPSSKSTSGGTAALGCLVEDYFPEPVTVSWNSGALTSGVHTFPAVLESSGLYSLSSVVTVPSSSLGTKTYICNVNHKPSNTKVDKRVEPKSCDKTHTCPPCPAPELRRGPSVFLFPPKPKDTLMISRTPEVTCVVVDVSHEDPEVKFNWYVDGVEVHNAKTKPREEQYNSTYRVVSVLTVLHQDWLNGKEYKCKVSNKALPAPIEKTISKAKGQPREPQVYTLPPSRKEMTKNQVSLTCLVKGFYPSDIAVEWESNGQPENNYKTTPPYLDSDGSFFLYSKLTVDKSRWQQGNVFSCSVLHEALHAHYTRKELSLSP
light 2: DIQMTQSPSSLSASVGDRVTITCQTTQSISSYLNWYQQKPGQPPKLLIYYASTKAEGIPARFSGSGLGTDFTLTISSLEPEDFAVYYCHYGISKVSFGQGTKVEIKRTVAAPSVFIFPPSDEQLKSGTAKVVCLLNNFYPREAKVQWKVDNALQSGNSKESVTEQDSKDSTYSLSSTLTLSKADYEKHKVYACEVTHQGLSSPVTKSFNRGEC
IC50 (ng/mL), α1a gliadin TCR, 250 nM 33mer gliadin [1]: 0.29 ng/mL
IC50 (ng/mL), α1b gliadin TCR, 250 nM 33mer gliadin [1]: 1.37 ng/mL
IC50 (ng/mL), α2 gliadin TCR, 250 nM 33mer gliadin [1]: 0.31 ng/mL
IC50 (ng/mL), ω1 gliadin TCR, 25 µM ω1/2 gliadin [2]: 1.48 ng/mL
IC50 (ng/mL), ω2 gliadin TCR, 250 nM ω1/2 gliadin [2]: 0.24 ng/mL
IC50 (ng/mL), BC hordein TCR, 250 nM BC hordein [3]: 10.8 ng/mL
IC50 (ng/mL), γ1 gliadin TCR, 250 nM γ1 gliadin [4]: 1.11 ng/mL
IC50 (ng/mL), γ2 gliadin TCR, 250 nM γ2 gliadin [5]: 284 ng/mL
IC50 (ng/mL), γ3 gliadin TCR, 100 µM γ3 gliadin [6]: 2.99 ng/mL
IC50 (ng/mL), γ4a gliadin TCR, 25 µM γ4a gliadin [7]: 802 ng/mL
IC50 (ng/mL), γ4d gliadin TCR, 100 µM γ4d gliadin [8]: 9.82 ng/mL

B2: DQN0344H1013/L0620//DQN0385H1270/L0681-F6 (bispecific antibody)
heavy 1: QVQLVESGGGVVQPGRSLRLSCAASGFTFSSAYWMVWVRQAPGQGLEWMGAVYGGSDTTYYAKWTEGRFTISRDTSKNTLYLQMNSLRAEDTAVYYCAREPLNYYYYGELNVWGQGTLVTVSSASTKGPSVFPLAPSSKSTSGGTAALGCLVKDYFPEPVTVSWNSGALTSGVHTFPAVLKSSGLYSLSSVVTVPSSSLGTQTYICNVNHKPSNTKVDKRVEPKSCDKTHTCPPCPAPELRRGPSVFLFPPKPKDTLMISRTPEVTCVVVDVSHEDPEVKFNWYVDGVEVHNAKTKPREEQYNSTYRVVSVLTVLHQDWLNGKEYKCKVSNKALPAPIEKTISKAKGQPREPQVYTLPPSREEMTKNQVSLTCLVKGFYPSDIAVEWESNGQPENNYKTTPPYLDSDGSFFLYSKLTVDKSRWQEGNVFSCSVLHEALHAHYTREELSLSP
light 1: DIQMTQSPSSLSASVGDRVTITCQATENIYSGLAWYQQKPGKAPKLLIYYVSTLAYGIPARFSGSGSGTDFTLTISSLEPEDFAVYYCQTYEDVSAVTFGQGTKVEIKRTVAAPSVFIFPPSDEQLKSGTAEVVCLLNNFYPREAKVQWKVDNALQSGNSEESVTEQDSKDSTYSLSSTLTLSKADYEKHKVYACEVTHQGLSSPVTKSFNRGEC
heavy 2: QVQLVESGGGVVQPGRSLRLSCAASGFTFSEWYFMSWVRQAPGKGLEWVASIDTGSGSIDYAEWVEGRFTISRDNSKNTLYLQMNSLRAEDTAVYYCARDIGIDYNFWGPGTLVTVSSASTKGPSVFPLAPSSKSTSGGTAALGCLVEDYFPEPVTVSWNSGALTSGVHTFPAVLESSGLYSLSSVVTVPSSSLGTKTYICNVNHKPSNTKVDKRVEPKSCDKTHTCPPCPAPELRRGPSVFLFPPKPKDTLMISRTPEVTCVVVDVSHEDPEVKFNWYVDGVEVHNAKTKPREEQYNSTYRVVSVLTVLHQDWLNGKEYKCKVSNKALPAPIEKTISKAKGQPREPQVYTLPPSRKEMTKNQVSLTCLVKGFYPSDIAVEWESNGQPENNYKTTPPYLDSDGSFFLYSKLTVDKSRWQQGNVFSCSVLHEALHAHYTRKELSLSP
light 2: DIQMTQSPSSLSASVGDRVTITCQTTQSISSYLNWYQQKPGQPPKLLIYYASTKAEGIPARFSGSGLGTDFTLTISSLEPEDFAVYYCHYGISKVSFGQGTKVEIKRTVAAPSVFIFPPSDEQLKSGTAKVVCLLNNFYPREAKVQWKVDNALQSGNSKESVTEQDSKDSTYSLSSTLTLSKADYEKHKVYACEVTHQGLSSPVTKSFNRGEC
IC50 (ng/mL), α1a gliadin TCR, 250 nM 33mer gliadin [1]: 0.38 ng/mL
IC50 (ng/mL), α1b gliadin TCR, 250 nM 33mer gliadin [1]: 1.78 ng/mL
IC50 (ng/mL), α2 gliadin TCR, 250 nM 33mer gliadin [1]: 0.33 ng/mL
IC50 (ng/mL), ω1 gliadin TCR, 25 µM ω1/2 gliadin [2]: 2.51 ng/mL
IC50 (ng/mL), ω2 gliadin TCR, 250 nM ω1/2 gliadin [2]: 0.2 ng/mL
IC50 (ng/mL), BC hordein TCR, 250 nM BC hordein [3]: 7.54 ng/mL
IC50 (ng/mL), γ1 gliadin TCR, 250 nM γ1 gliadin [4]: 1.11 ng/mL
IC50 (ng/mL), γ2 gliadin TCR, 250 nM γ2 gliadin [5]: 322 ng/mL
IC50 (ng/mL), γ3 gliadin TCR, 100 µM γ3 gliadin [6]: 2.63 ng/mL
IC50 (ng/mL), γ4a gliadin TCR, 25 µM γ4a gliadin [7]: 1160 ng/mL
IC50 (ng/mL), γ4d gliadin TCR, 100 µM γ4d gliadin [8]: 13.1 ng/mL

B3: DQN0344H0976/L0591//DQN0385H1527/L0605-F6 (bispecific antibody)
heavy 1: QVQLVESGGGVVQPGGSLRLSCAASGFTFSSAYWMVWVRQAPGQGLEWMGAVYGGSDTTYYAKWTEGRFTISRDTSKNTLYLQMNSLRAEDTAVYYCAREPLNYYYYGELNLWGQGTLVTVSSASTKGPSVFPLAPSSKSTSGGTAALGCLVKDYFPEPVTVSWNSGALTSGVHTFPAVLKSSGLYSLSSVVTVPSSSLGTQTYICNVNHKPSNTKVDKRVEPKSCDKTHTCPPCPAPELRRGPSVFLFPPKPKDTLMISRTPEVTCVVVDVSHEDPEVKFNWYVDGVEVHNAKTKPREEQYNSTYRVVSVLTVLHQDWLNGKEYKCKVSNKALPAPIEKTISKAKGQPREPQVYTLPPSREEMTKNQVSLTCLVKGFYPSDIAVEWESNGQPENNYKTTPPYLDSDGSFFLYSKLTVDKSRWQEGNVFSCSVLHEALHAHYTREELSLSP
light 1: DIQMTQSPSSLSASVGDRVTITCQATEEIYSGLAWYQQKPGKAPKLLIYYVSTLYEGIPARFSGSGSGTDFTLTISSLEPEDFAVYYCQTYEDVSAVTFGQGTKVEIKRTVAAPSVFIFPPSDEQLKSGTAEVVCLLNNFYPREAKVQWKVDNALQSGNSEESVTEQDSKDSTYSLSSTLTLSKADYEKHKVYACEVTHQGLSSPVTKSFNRGEC
heavy 2: QVQLVESGGGVVQPGRSLRLSCAASGFTFASWYFMSWVRQAPGKGLEWVASIDTGSGSIDYAEWVEGRFTISRDNSKNTLYLQMNSLRAEDTAVYYCARDIGIDYNFWGPGTLVTVSSASTKGPSVFPLAPSSKSTSGGTAALGCLVEDYFPEPVTVSWNSGALTSGVHTFPAVLESSGLYSLSSVVTVPSSSLGTKTYICNVNHKPSNTKVDKRVEPKSCDKTHTCPPCPAPELRRGPSVFLFPPKPKDTLMISRTPEVTCVVVDVSHEDPEVKFNWYVDGVEVHNAKTKPREEQYNSTYRVVSVLTVLHQDWLNGKEYKCKVSNKALPAPIEKTISKAKGQPREPQVYTLPPSRKEMTKNQVSLTCLVKGFYPSDIAVEWESNGQPENNYKTTPPYLDSDGSFFLYSKLTVDKSRWQQGNVFSCSVLHEALHAHYTRKELSLSP
light 2: DIQMTQSPSSLSASVGDRVTITCQTTQSISSYLNWYQQKPGQPPKLLIYYASTKAEGIPARFSGSGSGTDFTLTISSLEPEDFAVYYCHYGISKVSFGQGTKVEIKRTVAAPSVFIFPPSDEQLKSGTAKVVCLLNNFYPREAKVQWKVDNALQSGNSKESVTEQDSKDSTYSLSSTLTLSKADYEKHKVYACEVTHQGLSSPVTKSFNRGEC
IC50 (ng/mL), α1a gliadin TCR, 250 nM 33mer gliadin [1]: 0.7 ng/mL
IC50 (ng/mL), α1b gliadin TCR, 250 nM 33mer gliadin [1]: 1.84 ng/mL
IC50 (ng/mL), α2 gliadin TCR, 250 nM 33mer gliadin [1]: 0.51 ng/mL
IC50 (ng/mL), ω1 gliadin TCR, 25 µM ω1/2 gliadin [2]: 3.25 ng/mL
IC50 (ng/mL), ω2 gliadin TCR, 250 nM ω1/2 gliadin [2]: 0.3 ng/mL
IC50 (ng/mL), BC hordein TCR, 250 nM BC hordein [3]: 6.54 ng/mL
IC50 (ng/mL), γ1 gliadin TCR, 250 nM γ1 gliadin [4]: 0.59 ng/mL
IC50 (ng/mL), γ2 gliadin TCR, 250 nM γ2 gliadin [5]: 637 ng/mL
IC50 (ng/mL), γ3 gliadin TCR, 100 µM γ3 gliadin [6]: 2.09 ng/mL
IC50 (ng/mL), γ4a gliadin TCR, 25 µM γ4a gliadin [7]: 1210 ng/mL
IC50 (ng/mL), γ4d gliadin TCR, 100 µM γ4d gliadin [8]: 11.4 ng/mL
